Measurements: patent US20250134019A1, “TRIKETONE DIOXYGENASE VARIANTS FOR HERBICIDE TOLERANCE” (Monsanto Technology LLC, priority 2022, published 2025)

Legend:
Type in all cases: in vivo
[1] = test system: transgenic soybean plants; test: Mesotrione tolerance assay of Os.TDO transgenic soybean events (Construct 32); settings: for injury rate: sprayed at V1, rated 13 days after treatment
Excerpt: Mesotrione herbicide rate is expressed as grams active ingredient per hectare (g a.i./ha); 1X commercial rate=105 g a.i./ha. […] Plants at V1 growth stage were sprayed with mesotrione (in Callisto®, Syngenta in 1% crop oil) at 1X, 2X, 4X, 8X, and 16X of commercial rate (equivalent to 105, 210, 420, 840, and 1680 g a.i./ha, respectively). Crop injury ratings were taken 13 days after mesotrione treatment.
Os.TDO transgenic event-125 and wild-type control plants were sprayed with 2X of commercial rate of mesotrione (Callisto, 210 g a.i./ha), tembotrione (Laudis, 184 g a.i./ha) and sulcotrione (Sulcogan, 660 g a.i./ha). Each bar represents the mean of injury rating of 8 reps +/−SE. * indicates significant difference vs corresponding control at p<0.01.
The Os.TDO sequence was cloned into a set of binary vectors using standard cloning methods known in the art with its expression driven by different constitutive promoters and different 3′UTRs. Transgenic soybean plants comprising these constructs were developed using an Agrobacterium-mediated transformation system as described in Larue et al. (2020). The copy number of the transgene was determined via a Taqman assay and events with a single copy of the T-DNA insertion were selected for evaluation of mesotrione tolerance. Briefly, R2 and later generation homozygous lines of three soybean transgenic events derived from Construct 32 were selected for a mesotrione tolerance greenhouse assay. Construct 32 contained two expression cassettes between the T-DNA borders: one for expression of Os.TDO and the other for expression of a selectable marker. The Os.TDO cassette utilized the cauliflower mosaic virus (CaMV) 35S promotor and the 5′ UTR of HSP70 from petunia to drive expression of Os.TDO, followed by the 3′ UTR of the nopaline synthase (nos) gene from the T-DNA region of the Ti plasmid of Agrobacterium tumefaciens, which functions to direct polyadenylation of the mRNA. The selectable marker cassette conferring spectinomycin and streptomycin resistance comprises the promoter, intron, and leader sequences from the Arabidopsis thaliana actin 7 gene, the transit peptide region of Arabidopsis thaliana EPSPS, the coding region of the Tn7 adenylyltransferase (AAD (3″)) gene from E. coli, and the 3′ non-translated region from the Agrobacterium tumefaciens nopaline synthase gene.
Each plant was grown in a 3.5″ pot with soybean potting media in a growth chamber under conditions of 28° C./24° C. (light/dark) and a photoperiod of 16 hr light at 700 μE/8 hr dark, and fertilized with Peters general purpose fertilizer. Eight plants at V1 growth stage were sprayed with mesotrione (in Callisto®, Syngenta in 1% crop oil) at 1X, 2X, 4X, 8X, and 16X of commercial rate (equivalent to 105, 210, 420, 840, and 1680 g active ingredient/ha, respectively). Crop injury ratings were taken 13 days after mesotrione treatment.

[2] = test system: transgenic soybean plants; test: Mesotrione injury of R0 transgenic soybean plants expressing TDO homologs; settings: promoter Constitutive 2, 3' UTR B; 210 g a.i./ha mesotrione at V3-V4, rated 7-14 days after treatment; mean of all tested events
Procedure: Plant expression vectors comprising the selected TDO homologs under the control of one of two constitutive promoters were transformed into soybean via an Agrobacterium tumefaciens-mediated method. Following Agrobacterium transformation, R0 transgenic soybean plants containing a single copy of the transgene were identified through molecular characterization and segregation analysis. Transgenic and wild-type (control) plants were grown in 6-inch pots filled with BM7 soilless mix in a growth chamber under the conditions of 28° C./23° C. (light/dark) and a 16 hr light/8 hr dark photoperiod. Plants were fertilized with 15-5-15 liquid fertilizer at the V3-V4 growth stage and treated with 210 g a.i./ha mesotrione (1X=105 g a.i./ha; Callisto®, Syngenta in 1% crop oil). Plants were visually rated 7-14 days after treatment on a scale of 0% to 100%, with 0%=no injury and 100%=plant death, relative to the wild-type controls. The results summarized in Table 2 represent the mean of all tested events (10-15) for each construct.

transgenic cotton plants = test: Mesotrione treatment of cotton plants expressing TDO variants, crop injury; settings: Under 80° F., R2 cotton sprayed at V3
Procedure: Cotton is a crop of interest that is often exposed to high temperature growing conditions and thus, selected TDO variants were tested in cotton. Three TDO variants, D08, TDO_6, and TDO_8 were transformed into cotton (along with the Os.TDO control) using similar expression elements in single-cassette vectors or as part of multi-cassette vectors. R2 transgenic cotton plants were then screened for tolerance to mesotrione. Sixteen plants from two events each per construct were sprayed with two rates (2X and 8X) of mesotrione at V3 stage under normal (80° F.) and hot (100° F.) growing conditions. In addition, the effect of heat treatment on TDO accumulation in cotton plants were measured by ELISA. Cotton plants were planted and grown under normal greenhouse conditions (80° F. day/70° F. night) until V3 growth stage. Half of the plants were then moved to a higher temperature growth chamber (100° F. day/82° F. night) for the heat treatment, whereas the remaining half of the plants stayed in the same greenhouse (80° F. day/70° F. night). At day 3 after the plants were placed under different temperature conditions, leaf samples were collected for TDO protein measurement. The plants in 100° F. growth chamber and in 80° F. greenhouse were both sprayed with 2X mesotrione (210 g a.i./ha). Leaf samples were collected again 7 days after mesotrione treatment (DAT: Days After Treatment) for protein assay. Table 5 compares protein levels of the TDO variants in transgenic cotton plants grown under the two tested conditions. The protein levels for the TDO variants were measured at three time points for plants: 1) just before entering the high temperature treatment, 2) three days following placement into control (normal growth temperature) or high temperature (100° F.), and 3) 7 days after a 2X mesotrione spray.

B1: Os.TDO: TDO from Oryza sativa (HIS1), SEQ ID NO:2, polynucleotide codon optimized for dicot expression (protein, listed as Oryza sativa)
chain: MADESWRAPAIVQELAAAGVEEPPSRYLLREKDRSDVKLVAAELPEPLPVVDLSRLDGAEEATKLRVALQNWGFFLLTNHGVEASLMDSVMNLSREFFNQPIERKQKFSNLIDGKNFQIQGYGTDRVVTQDQILDWSDRLHLRVEPKEEQDLAFWPDHPESFRDVLNKYASGTKRIRDDIIQAMAKLLELDEDYFLDRLNEAPAFARFNYYPPCPRPDLVFGIRPHSDGTLLTILLVDKDVSGLQVQRDGKWSNVEATPHTLLINLGDTMEVMCNGIFRSPVHRVVTNAEKERISLAMLYSVNDEKDIEPAAGLLDENRPARYRKVSVEEFRAGIFGKFSRGERYIDSLRI
tolerance to sulcotrione ([1]; 2X commercial rate sulcotrione (Sulcogan, 660 g a.i./ha), event-125): provided tolerance
tolerance to tembotrione ([1]; 2X commercial rate tembotrione (Laudis, 184 g a.i./ha), event-125): provided tolerance
injury rate ([1]; mesotrione 16X (1680 g a.i./ha)): below 15%
injury rate ([1]; mesotrione at 8X or lower rate (1X=105 g a.i./ha), three transgenic events): lower than 10%
tolerance to mesotrione ([1]; up to 16X of commercial application rate (1X=105 g a.i./ha)): excellent tolerance
% Injury [2]: 12%
Crop Injury (%), 210 g/ha (2X) Mesotrione (transgenic cotton plants): 0%
Crop Injury (%), 840 g/ha (8X) Mesotrione (transgenic cotton plants): 0%
